Our source for the PKAtide concentration values is paper PMC11236177.

In assay [1] the target is recombinant PfPKG quintuple mutant STmut (Plasmodium falciparum) (UniProt Q8I719).
Assay [2] addresses recombinant wild-type PfPKG (Plasmodium falciparum) (UniProt Q8I719).

PKAtide (peptide): the PKAtide concentration at half maximal velocity (Km), ParM-ADP real-time fluorescence kinase assay worked out at 13 µM in assay [1] and 10 µM in assay [2].
